Source: patent publication US20240182908, “DEOXYRIBONUCLEOSIDE OR DEOXYRIBONUCLEOTIDE HAVING NOVEL ARTIFICIAL BASE APPLICABLE TO SCREENING FOR DNA APTAMER, AND NUCLEIC ACID CONTAINING THE SAME” (TAGCYX BIOTECHNOLOGIES INC., published 2024)
Read-outs that look alike come from different tables or passages of the source.

How the values were obtained:
VEGF165 [1] = target: T1, VEGF165 (UniProt P15692-4 P15692-4:27-191); assay: EMSA; PBS + 0.005% NP-40, 37 C; shift band lost; conditions: chain copies: 2
T1 sequence (P15692 other isoform, or with tags, fused parts or gaps): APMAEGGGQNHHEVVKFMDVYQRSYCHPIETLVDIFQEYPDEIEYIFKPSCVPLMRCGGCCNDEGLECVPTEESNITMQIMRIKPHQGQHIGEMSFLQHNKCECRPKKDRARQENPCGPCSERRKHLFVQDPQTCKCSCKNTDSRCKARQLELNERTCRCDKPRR
Procedure: (§1) Analysis was performed by EMSA on whether the most concentrated candidate sequence binds to the target protein. First, an oligomer corresponding to the candidate sequence (T-00244, see below for the sequence in Table 8) was synthesized with a chemical synthesis method, and purified with an OPC (cartridge). The purified oligomer of the candidate sequence was added into the binding solution to adjust to 0.2 μM, and a folding operation (at 95° C., for 5 minutes→(−0.1° C./sec)→at 25° C.) was performed to form tertiary structures. Thereafter, VEGF165 was diluted with the binding solution to 0.2 μM and mixed with the folded DNA solution, and the resultant was incubated at 37° C. for 30 minutes. The sample incubated was subjected to electrophoresis with 8% unmodified polyacrylamide gel to analyze on whether a band indicative of the DNA-protein complex could be detected. DNA was stained with SYBR Gold, and detected with blue light at 470 nm.
(§2) Subsequently, to determine whether the novel artificial base dDscp is involved in binding to VEGF165, evaluation was performed with oligomers obtained by substituting dDscp with dDs or dA (dDs-substituted form: T-00245, dA-substituted form: T-00246, see below for the sequences in Table 8). The oligomers were synthesized with a chemical synthesis method, and purified with an OPC (cartridge). […]

[2] = target: T2, sIL-6R (soluble interleukin-6 receptor) (UniProt P08887 P08887:20-355); assay: EMSA; PBS + 0.005% NP-40, room temperature; shift band lost
T2 sequence (P08887 20-355, one chain of several): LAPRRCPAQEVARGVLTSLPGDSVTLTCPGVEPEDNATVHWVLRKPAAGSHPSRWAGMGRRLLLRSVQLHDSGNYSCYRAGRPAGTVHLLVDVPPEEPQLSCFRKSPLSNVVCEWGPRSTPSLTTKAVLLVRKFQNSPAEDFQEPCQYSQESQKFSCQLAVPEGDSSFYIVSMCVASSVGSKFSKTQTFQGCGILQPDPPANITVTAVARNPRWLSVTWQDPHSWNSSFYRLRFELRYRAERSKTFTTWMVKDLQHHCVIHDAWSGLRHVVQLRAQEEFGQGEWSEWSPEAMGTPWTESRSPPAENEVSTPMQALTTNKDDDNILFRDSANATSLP
Procedure: (§3) The purified oligomer of the candidate sequence was added into the binding solution to adjust to 0.2 μM, and a folding operation (at 95° C. for 5 minutes→(−0.1° C./sec)→at 25° C.) was performed to form tertiary structures. Thereafter, sIL-6R was diluted with the binding solution to 0.2 μM and mixed with the folded DNA solution, and the resultant was incubated at room temperature for 30 minutes. The sample incubated was subjected to electrophoresis with 8% unmodified polyacrylamide gel to analyze on whether a band indicative of the DNA-protein complex could be detected. DNA was stained with SYBR Gold, and detected with blue light at 470 nm (two lanes in the left in FIG. 4).
Subsequently, to determine whether the novel artificial base dDsbn is involved in binding to sIL-6R, evaluation was performed with oligomers obtained by substituting dDsbn with dDs or dA (dDs-substituted form: T-00203, dA-substituted form: T-00204, see below for the sequences in Table 5). The oligomers were synthesized with a chemical synthesis method, and purified with an OPC (cartridge). For EMSA, a folding operation, reaction, and analysis with unmodified polyacrylamide were performed as described above (FIG. 4).

[3] = target: T2, sIL-6R (soluble interleukin-6 receptor); assay: as above; remark: listed apart in the source
Procedure: as §1, with “candidate sequence (T-00247, see below” for “candidate sequence (T-00244, see below”, “in Table 9) was synthesized” for “in Table 8) was synthesized”, “structures. Thereafter, sIL-6R was diluted” for “structures. Thereafter, VEGF165 was diluted”, “solution to 0.6 μM and” for “solution to 0.2 μM and”, “incubated at room temperature for 30” for “incubated at 37° C. for 30”
as §2, with “sIL-6R,” for “VEGF165,”, “T-00248,” for “T-00245,”, “T-00249,” for “T-00246,”, “9).” for “8).”

VEGF165 [4] = target: T1, VEGF165; assay: EMSA; PBS + 0.005% NP-40, 37 C; shift band lost; conditions: chain copies: 2; remark: listed apart in the source
Procedure: as §3, with “sequence (T-00199, see below for the sequence in Table 4)” for “sequence”, “VEGF165” for “sIL-6R”, “37° C.” for “room temperature”, “10%” for “8%”, “nm.” for “nm (two lanes in the left in FIG. 4).”
Subsequently, to determine whether the novel artificial base dDsbn is involved in binding to VEGF165, evaluation was performed with oligomers obtained by substituting dDsbn with dDs or dA (dDs-substituted form: T-00200, dA-substituted form: T-00201, see below for the sequences in Table 4). The oligomers were synthesized with a chemical synthesis method, and purified with an OPC (cartridge). For EMSA, a folding operation and reaction were performed as described above, and analysis was performed with unmodified polyacrylamide (in FIG. 2, dDs: two lanes in the center, dA: two lanes in the right).

B1: T-00246 (ssDNA)
DNA: GCGTGTTGAGCTGTATTAGGGTGTCAGGTTTTGGTCAGGCGTTCAAACGTAGAGGAATGGACACTTCGGCGATACAATCCTGATCCATGAGACGG
B1: no binding (VEGF165 [1]).

B2: T-00204 (ssDNA)
DNA: CTCCATTGACTCGGCTTAAACTCCCAGGAGGTGGTGGGGGTGGGATTAGGGTTGGGATTGGAGGGGTGTCGGTCATATTGGGGTGCTCCTTGGCT
B2: no binding [2].

B3: T-00249 (ssDNA)
DNA: GCGTGTTGAGCTGTATTAGGGTGTCAGGAAGGATTCGGGGGTGGATTTAGGGGGGGATCGTTGTGGAGGCGATACAATCCTGATCCATGAGACGG
B3: no binding [3].

B4: T-00201 (ssDNA)
DNA: CTCCATTGACTCGGCTTAAACTCCCGTCAGTTATGAATAGGTACGCATGCGGAGTTCGCTACCCCGCCATGGTCATATTGGGGTGCTCCTTGGCT
B4: no binding (VEGF165 [4]).
